This is an account of results in patent US12331106B2, “Anti-angiopoietin-2 antibodies that induce Tie2 activation” (Institute for Basic Science, priority 2018, dated 2025).

One assay deals with Tie2 receptor. Nature of the assay: Tie2 phosphorylation in HUVECs (immunoprecipitation/Western). As to conditions: antibody 0.02-50 μg/ml with hAng2 1 μg/ml, 30 min. Format: cell-based, human. On the procedure:
Ang2 binds to the Tie2 receptor and acts as a weak agonist or antagonist. The anti-Ang2 antibody developed in this invention binds to Ang2 to induce Ang2-antibody complexes, further causing clustering of Tie2 receptors and consequently enhancing activation of Tie2 receptor. Experiments were conducted to analyze the effect of anti-Ang2 antibody on Tie2 phosphorylation using HUVECs.
Specifically, HUVECs (LONZA™) were cultured in EGM-2 (LONZA™) at 37° C. and 5% CO2 concentration in a 100 mm culture dish. At 80-90% confluency, the cells were changed to EBM-2 (LONZA™) medium for 2 hrs˜ 6 hrs for serum starvation. Humanized anti-Ang2 antibodies at various concentrations (0.02 μg/ml to 50 μg/ml) were mixed with hAng2 protein (1 μg/ml, R&D® Systems) for 30 min. Then, the mixtures were treated with the cultured cells and further incubated for 30 min. The cells were washed twice with cold PBS and then lysed in 1000 μl of lysis buffer (10 mM Tris-Cl pH 7.4, 150 mM NaCl, 5 mM EDTA, 10% glycerol, 1% TRITON™ X-100 (non-ionic polyoxyethylene surfactant), protease inhibitor, phosphatase inhibitor) and then lysed at 4° C. for 60 min. Cell extracts were prepared and centrifuged at 12,000 rpm for 10 min. The supernatant was quantitated by bicinchoninic (BCA) assay.
To 0.5 mg of cell lysate, 1 μg of Tie2 antibody (R&D® Systems, AF313) was added and incubated overnight at 4° C. […]

The test system of another assay is HUVEC monolayer. In words: In vitro vascular permeability (leakage) assay, TNF-α induced, FITC-dextran. As to conditions: HUVECs; pre-treatment antibody 1 μg/ml with Ang2 1 μg/ml 30 min; TNF-α 100 ng/ml 22 hr. In kind it is cell-based, human. On the procedure: Vascular leakage assay was carried out in HUVECs using In Vitro Vascular Permeability Assay Kit (Millipore®) according to the manufacturer's instruction. HUVECs were seeded into the insert of the transwell plate and cultured for 3 days for 100% confluence. The HUVECs were pre-incubated with Ang2 (1 μg/ml), Ang2 (1 μg/ml) together with Control, 2C8H11 or 4B9H11 antibody (1 μg/ml) for 30 min, and then TNF-α (100 ng/ml) was added, and the cells were incubated at 37° C. for 22 hr. FITC-dextran was added to the upper chamber and incubated for 20 min. Passage of FITC-dextran though the HUVEC monolayer was measured by a fluorescence reader at excitation and emission wavelengths of 485 and 535 nm, respectively.

Assay [1] relates to tumor vessels of LLC tumor. In words: Tumor vessel normalization (CD31, PDGFRβ immunofluorescence) in LLC tumors. In kind it is in vivo, C57BL/6 mice. The following applies: compared with Fc or Fc+Cpt. From the text: In order to investigate the changes in tumor vessels by 2C811 antibody, we obtained frozen sections of tumor samples and performed immunofluorescence analyses by staining with a blood vessel-specific marker, CD31, and pericyte-specific marker, PDGFRβ. In detail, the tumor samples were harvested from the mice from the experiment described in Example 8, which were fixed in 4% paraformaldehyde (PFA, Merck), dehydrated in 30% sucrose (Junsei), embedded in OCT compound (Leica), and sectioned using a cryostat (Leica). The resulting frozen sections were blocked for 1 hr using a Protein Blocking Buffer (DAKO). Then the sections were stained with hamster anti-CD31 antibody (1:200, Millipore®) and rat anti-PDGFRB antibody (1:200, eBioscience™) in PBS at 4° C. for 8 hrs. After washing 3 times with PBS, the sections were stained with ALEXA FLUOR® 488-conjugated anti-hamster IgG antibody and Alexa ALEXA FLUOR® 594-conjugated anti-rat IgG antibody (1:1000, Jackson Immunoresearch) in PBS for 1 hr at room temperature. After another 3 washes with PBS, the sections were mounted in fluorescence mounting medium (DAKO) using a coverslip (Marienfeld). The stained sections were imaged using LSM880 confocal microscope (Zeiss). […]

The subject of assay [2] is tumor vessels of LLC tumor. In words: Tumor vessel perfusion (lectin) and hypoxia (Hypoxyprobe) in LLC tumors. In kind it is in vivo, C57BL/6 mice. The following applies: compared with Fc or Fc+Cpt. The procedure: To analyze the functionality of tumor vessels after treatment with 2C8H11, vessel perfusability and hypoxia status were evaluated. Before harvesting tumor mass, the mice were intravenously injected with 100 μl of DyLight™ 488-Lectin (Vector laboratory) and intraperitoneally injected with 60 mg/kg of Pimonidazole-HCl (HYPOXYPROBE™+) dissolved in PBS for 30 min before sacrifice. The mice were perfusion-fixed with 4% PFA. We obtained frozen sections from the tumor mass, which were stained with hamster anti-CD31 antibody (1:200, Millipore®) and 4.3.11.3 mouse Pacific blue-Mab (1:50, HYPOXYPROBE™+) in PBS. The sections were imaged using LSM880 confocal microscope (Zeiss), and the obtained images were analyzed using ImageJ software (http://rsb.info.nih.gov/ij) to quantify Lectin+area/CD31+area and HYPOXYPROBE™+area.
Furthermore, hypoxia, as indicated by HYPOXYPROBE™+area, was decreased in tumors treated with 2C8H11 or 2C8H11+Cpt by 72%, when compared with tumors treated with Fc or Fc+Cpt (FIG. 11C).

B1: 2C8H11: humanized anti-Ang2 human IgG1 antibody from mouse 2C8; VH SEQ ID NO: 55, VL SEQ ID NO: 56 (antibody, V domains shown)
VH: QVQLVQSGAEVKKPGASVKVSCKASGYTFTSYWMHWVRQAPGQGLEWMGMIDPSDSETRLNQKFKDRVTMTRDTSTSTVYMELSSLRSEDTAVYYCARRFYYGSDWYFDVWGQGTLVTVSS
VL: DIQLTQSPSFLSASVGDRVTITCKASQDVGTAVAWYQQKPGKAPKLLIYWASTRHTGVPSRFSGSGSGTEFTLTISSLQPEDFATYYCQQYSSYPLTFGQGTKVEIK
modifications: human IgG1 constant regions; VH; VL
With B1, the “phosphorylation of Tie2” value in the assay on Tie2 receptor is “strongly induced in a dose-dependent manner”. Further, the “vascular leakage induced by TNF-α (passage of FITC-dextran)” value in the assay on HUVEC monolayer is recorded as “significantly inhibited”. In assay [1], the “PDGFRβ+ pericyte coverage increase” value is on record as 2.4 fold and the “tumor blood vessel (BV) density reduction” value stood at 56%. In assay [2], the “hypoxia decrease (HYPOXYPROBE+ area)” value stood at 72% and the “increase in perfusion (Lectin+ area/CD31+ area)” value is “approximately 3 fold”.
